Assay results as given in patent US20230047413A1 (Janssen / Centocor, published 2023).

Tests used:
[1] = molecular target: T1, PHF-tau (paired helical filament tau isolated from Alzheimer's disease brain) (human, UniProt P10636-8 2-441, limits assumed, hyper-phosphorylated, aggregated; sites not listed for the preparation); assay: SPR ProteOn, PHF-tau capture-coupled via HT7, bivalent model; upper end of range; upper end of range
T1 construct: also called enriched PHF-tau; ePHF-tau
Procedure: (§1) Affinity matured monoclonal antibodies were tested for binding to PHF-tau isolated from Alzheimer's disease brain.
(§2) A GLC sensor chip was covalently immobilized with a mouse anti-tau antibody, HT7 (ThermoFisher, catalog# MN1000) using the vendor recommended protocol for amine-coupling chemistry (˜5000 response units, RU). The coupling buffer was 10 mM, pH 4.5 sodium acetate. PHF-tau was prepared by 2-times centrifugation at 5000×g in 5° C. for 10 min. […] After capture-coupling, the surface was activated and deactivated to generate a homogenous PHF-tau surface for antibody binding studies. The anti-tau antibodies and their Fabs (prepared in running buffer, 0.024-75 nM at 5-fold dilutions) were injected at 50 μL/min over the PHF-tau surface to measure binding. The association and dissociation profiles were monitored for 4 minutes and 2 hours, respectively. After dissociation, the sensor chip was regenerated using multiple injections of 10 mM Glycine pH 2.0 and the running buffer. A reference surface (without any PHF-tau) was used to monitor non-specific binding of the injected mAbs or Fabs. HT7 antibody was used as a positive control. The binding sensorgrams for mAbs were fit using a bivalent binding model where the apparent affinity or avidity-driven binding (KD) was reported as the ratio of off-rate and on-rate (koff/kₒₙ). […]

[2] = molecular target: T1, PHF-tau (paired helical filament tau …); assay: SPR ProteOn, PHF-tau on chip
[3] = molecular target: T2, tau phospho-peptide of the direct ELISA of Example 11; assay: direct ELISA, peptide coated
T2 construct: also called pT217 peptide; pT212/pT217 peptide
Procedure, shortened: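 Tau phospho-peptide coated directly on plates at 10 ng/mL overnight, then incubated with antibodies. Bound Fab detected with HRPO-labelled anti-Fab antibody (1:10000) and TMB substrate. Binding curves generated from the read-out.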

[4] = molecular target: T2, tau phospho-peptide of the direct ELISA …; assay: direct ELISA on plate-coated tau phospho-peptide (10 ng/mL), detection with HRPO-labelled anti-Fab antibody
Procedure: Binding to tau phospho-peptide was analysed by ELISA where peptide (10 ng/mL) was directly coated to the plate overnight. […] After incubation with antibodies, plates were washed and 50 μL per well of HRPO labelled anti-Fab antibody (Jackson Immunoresearch laboratories) (diluted 1:10000 in blocking buffer). After another washing step detection was performed with “One step” TMB (Thermo Scientific) according to the manufacturers' instructions. Plates were analysed in EnVision® 2102 Multilabel Reader (Perkin Elmer, Waltham, Mass., USA). Binding curves were generated using GraphPad Prism7.0 software.

[5] = molecular target: T1, PHF-tau (paired helical filament tau …); assay: SPR ProteOn, PHF-tau capture-coupled via HT7, bivalent model
Procedure: as §1
A GLC sensor chip was covalently immobilized with a mouse anti-tau antibody, HT7 (ThermoFisher, catalog# MN1000) using the vendor recommended protocol for amine-coupling chemistry (˜5000 response units, RU). The coupling buffer was 10 mM, pH 4.5 sodium acetate. PHF-tau was prepared by 2-times centrifugation at 5000×g in 5° C. for 10 min. […] After capture-coupling, the surface was activated and deactivated to generate a homogenous PHF-tau surface for antibody binding studies. The anti-tau antibodies and their Fabs (prepared in running buffer, 0.024-75 nM at 5-fold dilutions) were injected at 50 μL/min over the PHF-tau surface to measure binding. The association and dissociation profiles were monitored for 4 minutes and 2 hours, respectively. After dissociation, the sensor chip was regenerated using multiple injections of 10 mM Glycine pH 2.0 and the running buffer. A reference surface (without any PHF-tau) was used to monitor non-specific binding of the injected mAbs or Fabs. HT7 antibody was used as a positive control. The binding sensorgrams for mAbs were fit using a bivalent binding model where the apparent affinity or avidity-driven binding (KD) was reported as the ratio of off-rate and on-rate (koff/kₒₙ). A 1:1 Langmuir binding model was used for kinetics analysis of Fabs.

[6] = molecular target: T1, PHF-tau (paired helical filament tau …); assay: SPR ProteOn, PHF-tau capture-coupled via HT7, bivalent model; upper end of range
Procedure: as §1, §2

[7] = molecular target: T1, PHF-tau (paired helical filament tau …); assay: SPR ProteOn, PHF-tau capture-coupled via HT7, bivalent model; lower end of range; lower end of range
Procedure: as §1, §2

[8] = molecular target: T1, PHF-tau (paired helical filament tau …); assay: SPR ProteOn, PHF-tau capture-coupled via HT7, bivalent model; lower end of range
Procedure: as §1, §2

T1 sequence (P10636 other isoform, or with tags, fused parts or gaps limits assumed): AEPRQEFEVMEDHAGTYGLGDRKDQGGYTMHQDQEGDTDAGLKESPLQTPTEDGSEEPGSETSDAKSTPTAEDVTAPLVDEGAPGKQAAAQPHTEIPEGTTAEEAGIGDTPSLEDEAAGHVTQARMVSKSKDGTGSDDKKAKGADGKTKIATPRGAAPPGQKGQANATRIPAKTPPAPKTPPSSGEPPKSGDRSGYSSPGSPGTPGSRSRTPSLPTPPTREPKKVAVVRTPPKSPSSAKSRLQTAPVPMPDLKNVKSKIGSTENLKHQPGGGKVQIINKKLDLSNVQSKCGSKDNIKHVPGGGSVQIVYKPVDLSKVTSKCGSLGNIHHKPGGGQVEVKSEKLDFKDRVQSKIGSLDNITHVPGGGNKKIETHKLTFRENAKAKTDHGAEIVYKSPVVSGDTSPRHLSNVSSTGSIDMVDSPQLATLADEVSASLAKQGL
T2 sequence (main, as listed by the source): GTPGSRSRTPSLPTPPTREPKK

- kon [1]: 6.61e+06 M⁻¹ s⁻¹
- fold improvement in on-rate compared to the parent antibody (B296) [2]: 3 fold
- EC50 [3]: 70.7 pM
- EC50 (read off the curve) [4]: ~40 pM
- Kd [5]: 1.8 pM
- koff [5]: 1.13e-05 s⁻¹
- kon [5]: 6.17e+06 M⁻¹ s⁻¹
- Kd [6]: 2.1 pM
- koff [6]: 1.17e-05 s⁻¹
- kon [7]: 5.72e+06 M⁻¹ s⁻¹
- Kd [8]: 1.6 pM
- koff [8]: 1.08e-05 s⁻¹
B1: B711 (antibody, human IgG1, kappa, V domains shown)
VH: QVQLVESGGGVVQPGRSLRLSCAASGFTFTSYAMSWVRQAPGKGLEWVASITKGGNTYYADSVKGRFTISRDNSKNTLYLQMNSLRAEDTAVYYCARGWGIYGWFAYWGQVTLVTVSS
VL: DIQMTQSPSSLSASVGDRVTITCKASQDINRWLNWFQQKPGKAPKSLIYRANRLLDGVPSRFSGSGSGTDFTLTISSLQPEDFATYYCLQYDEFPLTFGQGTKLEIKR
notes: also called PT1B711
